Measured values as given in patent US20190323012, “TNF-Alpha-Binding Aptamer, And Therapeutic Use For Same” (BIOIS CO., LTD., published 2019).

B1: ATK007 (ssRNA)
RNA: GCGGAAGCGUGCUGGGCCCGGCUUGCAGGUCGCCGAAAUGACCGCACACAUAACCCAGAGGUCGAU
modifications: 2'-F on all C and U
B2: ATK001 (ssRNA)
RNA: GGGAGGACGAUGCGGCCACUGGCUAGGAACUCGAGUACUGGGUGGCAGACGACUCGCCCGA
modifications: 2'-F on all C and U

Tests used:
[1] = molecular target: T1, TNF-alpha (Homo sapiens, UniProt P01375 P01375:77-233); test: SPR; range given for ATK001 and ATK007 together; TNF-alpha immobilized on CM5, HBS; settings: tags: recombinant human TNF-alpha (Sigma-Aldrich; biotinylated for SELEX); chain copies: 3
T1 sequence (P01375 77-233, one chain of several): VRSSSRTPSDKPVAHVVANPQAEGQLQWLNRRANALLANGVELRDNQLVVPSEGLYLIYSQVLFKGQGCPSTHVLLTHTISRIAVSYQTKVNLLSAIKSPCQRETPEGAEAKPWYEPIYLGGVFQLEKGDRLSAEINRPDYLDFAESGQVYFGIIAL
Experimental: SPR (Surface Plasmon Resonance) analysis was performed using a Biacore2000 (BIACORE, USA). A mixture of NHS (0.1 M N-hydroxysuccinimide) and DEC (0.4 M N-ethyl-N′-(dimethylaminopropyl)carbodiimide) in equal amounts (50 μL) was prepared and allowed to flow at 5 μL/min for 40 sec to thus activate a CM5 sensor chip. When 150-200 RU appeared, TNF-α protein to be immobilized was mixed with sodium acetate (pH 4.0) and allowed to flow at […]. In order to evaluate whether or not the protein was immobilized, 50 mM NaOH was allowed to flow for 5 sec. At 80° C., RNA aptamers ATK001 and ATK007 were denatured for 5 min and then restored at room temperature for 15 min, thus preparing an analyte (RNA).
(§1) In order to determine kinetics, the flow rate was changed to 30 μL/min.

[2] = molecular target: ErbB3 (UniProt P21860 P21860:20-643); test: SPR; specificity control; printed as about 104 nM, read as 10^4 nM (lost superscript); settings: tags: ThermoFisher
Sequence of ErbB3 (P21860 20-643, one chain of several): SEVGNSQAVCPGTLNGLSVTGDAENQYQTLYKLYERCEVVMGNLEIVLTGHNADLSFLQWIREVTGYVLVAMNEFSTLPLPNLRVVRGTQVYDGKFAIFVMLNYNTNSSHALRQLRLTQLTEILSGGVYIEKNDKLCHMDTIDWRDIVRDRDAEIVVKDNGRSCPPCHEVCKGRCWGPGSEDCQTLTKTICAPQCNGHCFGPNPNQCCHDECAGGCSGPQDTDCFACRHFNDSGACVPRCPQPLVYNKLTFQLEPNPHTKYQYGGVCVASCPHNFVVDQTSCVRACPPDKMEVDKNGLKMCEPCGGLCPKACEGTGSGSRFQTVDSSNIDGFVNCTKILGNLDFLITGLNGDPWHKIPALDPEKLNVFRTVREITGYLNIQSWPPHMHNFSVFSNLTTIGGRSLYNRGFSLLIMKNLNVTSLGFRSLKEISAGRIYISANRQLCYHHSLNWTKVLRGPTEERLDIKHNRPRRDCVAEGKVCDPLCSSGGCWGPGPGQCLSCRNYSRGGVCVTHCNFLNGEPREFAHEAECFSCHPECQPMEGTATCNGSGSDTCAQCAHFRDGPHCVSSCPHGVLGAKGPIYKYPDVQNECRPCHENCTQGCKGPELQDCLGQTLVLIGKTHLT
Experimental: as §1
(§2) In order to evaluate the binding specificity of the RNA aptamer to TNF-α through SPR analysis in the same manner as in <Example 4> above, the binding capability to ErbB2 (ThermoFisher, USA) (Nucleic Acid Ther. 2011 June; 21(3):173-178), ErbB3 (ThermoFisher, USA) (Proc. Natl. Acad. Sci. USA. (2012), 109(33):13237-42) and IGF-BP1 (ThermoFisher, USA) (Insulin-like growth factor-binding protein 1) (Crit. Rev. Oncol. Hematol. (2008), 66(2):91-98), in addition to TNF-α, was quantified in Kd. The results are shown in [FIG. 5] (FIG. 5a illustrating the results of measurement of binding capability of ATK001, FIG. 5b illustrating the results of measurement of binding capability of ATK007, and FIG. 5c illustrating the results of measurement of binding capability of ATK001).

[3] = molecular target: ErbB2 (UniProt P04626 P04626:23-652); test: as above; settings: tags: ThermoFisher
Experimental: as §1, §2

[4] = molecular target: T1, TNF-alpha; test: EMSA; 30 mM Tris-HCl pH 7.5, 150 mM NaCl, 1.5 mM MgCl2, 2 mM DTT, tRNA, room temperature; radiolabeled RNA 50 pM; settings: tags: recombinant human TNF-alpha (Sigma-Aldrich; biotinylated for SELEX); chain copies: 3
Experimental: The single-stranded nucleic acids (50 pM) binding to TNF-α, selected in <Example 2> and labeled with radioisotopes, were reacted with TNF-α protein in a manner in which the amount of TNF-α protein was increased (ranging from 0 to 320 nM). Here, the total amount of the aptamer, TNF-α protein, binding buffer (30 mM Tris-HCl (pH 7.5), 150 mM NaCl, 1.5 mM MgCl₂, and 2 mM DTT), and […] tRNA was adjusted to 40 μL, followed by binding at room temperature for 30 min. 6×BPB was added thereto, after which electrophoresis at 4° C. and 120 V using a 6% native gel (6% polyacrylamide, 1×TBE, 10 mM MgCl₂, 2% glycerol), exposure to an X-ray film and development were performed. The dissociation constant Kd was determined by calculating the amount of the RNA aptamer binding to TNF-α relative to the total RNA aptamer.
The 4% non-denatured acrylamide gel images of the TNF-α-bound RNA aptamer (C) and the TNF-α-unbound RNA aptamer (F), resulting from reacting the radioisotope-labeled 50 pM RNA aptamer ATK001 (a) and 50 pM RNA aptamer ATK007 (b) with TNF-α in a manner in which the amount of TNF-α was increased (ranging from 0 to 320 nM), are shown in a and b of FIG. 4. The percentage of RNA binding to TNF-α was determined and is graphed in c of FIG. 4.

| Binder | Kd [1] | Kd [2] | Kd [3] | Kd [4] |
| --- | --- | --- | --- | --- |
| B1 | 0.00529 µM | ~10 µM | ~10 µM | ~0.005 µM |
| B2 | 0.00529 µM | ~10 µM | ~10 µM |  |
